Data: CN111303285A (BAILISIKANG BIOLOGICAL PHARMACEUTICAL HANGZHOU CO LTD, dated 2020)

Columns and labels:
[1] = target: T1, OX40 expressed on cells (OX40-293F细胞; 19B3 HEK293 NF-κB报告细胞系) (UniProt P43489 29-277); experiment: cell-based or functional assay
T1 sequence (looked up): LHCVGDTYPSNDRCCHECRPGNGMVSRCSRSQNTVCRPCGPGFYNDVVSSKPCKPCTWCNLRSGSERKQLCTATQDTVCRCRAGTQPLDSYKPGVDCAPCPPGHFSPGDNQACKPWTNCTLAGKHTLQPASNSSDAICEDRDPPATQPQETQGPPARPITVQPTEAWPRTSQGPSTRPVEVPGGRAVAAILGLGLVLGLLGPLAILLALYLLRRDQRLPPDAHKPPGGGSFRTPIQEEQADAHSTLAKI

[2] = target: T2, 4-1BB-His融合蛋白 (UniProt Q07011 24-186); experiment: ELISA, fusion protein coated on the plate
T2 construct: extracellular domain; also called 4-1BB融合蛋白; not shown: His tag

[3] = target: T3, 4-1BB-rFc融合蛋白 (UniProt Q07011 24-186); experiment: ELISA, fusion protein coated on the plate
T3 construct: extracellular domain; also called 4-1BB融合蛋白; not shown: rFc part

B1: 本发明抗OX40抗体 (murine monoclonal anti-OX40 antibody of the invention) (antibody, V domains shown)
VH: EVQLQQSGAELVKPGASVKLSCKASGYTFTNYWIHWVKQRPGQGLEWIGEINPSNGRTNSNEKFKNKATLTVDKSSSTAYMQLSSLTSEDSAVYYCAEAVPYYFVYWGQGTTLTVSS
VL: DIVMTQAASSLSASLGDRVTISCRASQDINNYLNWYQQKPDGTVKLLIYFTSGLRSGVPSRFSGSGSGTDYSLTISNLEQEDIATYFCQQGNTLPLTFGAGTKLELN
notes: also called 本发明OX40抗体; 靶向OX40的抗体
[1]
  NF-κB luciferase reporter (RLU) in 19B3 cells expressing OX40; 半数有效浓度(EC50): 0.803 µg/mL
[2]
  binding result: no binding
[3]
  binding result: no binding
